Data published in article PMC12205877.

T1: TaBZR2 (Triticum aestivum (ZM1860), UniProt A0A3B6FJ07 1-354)
T1 sequence: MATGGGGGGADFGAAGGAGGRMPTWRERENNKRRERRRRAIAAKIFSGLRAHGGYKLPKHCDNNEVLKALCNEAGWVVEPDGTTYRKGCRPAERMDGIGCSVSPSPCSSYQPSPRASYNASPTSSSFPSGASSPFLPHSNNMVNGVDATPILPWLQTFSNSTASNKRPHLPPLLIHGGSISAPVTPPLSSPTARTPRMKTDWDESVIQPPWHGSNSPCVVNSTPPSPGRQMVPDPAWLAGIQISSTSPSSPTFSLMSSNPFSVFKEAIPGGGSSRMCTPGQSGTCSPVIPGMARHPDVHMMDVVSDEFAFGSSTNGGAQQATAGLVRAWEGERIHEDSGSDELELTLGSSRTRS

B1: TaHSP21 promoter mutated E-box probe (dsDNA)
DNA 1: AAGCATGCGCATGTTGAAATGGACACAAAATGATGGACAAGGGC
DNA 2: GCCCTTGTCCATCATTTTGTGTCCATTTCAACATGCGCATGCTT
B2: TaHSFb2a promoter mutated E-box probe (dsDNA)
DNA 1: CCGTTTCTAGAAACCTCGCTGTACAGCCGACTAGAAAGGATCG
DNA 2: CGATCCTTTCTAGTCGGCTGTACAGCGAGGTTTCTAGAAACGG
B3: TaHSP21 promoter E-box probe (WT) (dsDNA)
DNA 1: AAGCACATATGTGTTGAAACAAGTGCAAAATGACAAGTGAGGGC
DNA 2: GCCCTCACTTGTCATTTTGCACTTGTTTCAACACATATGTGCTT
B4: TaHSFb2a promoter E-box probe (WT) (dsDNA)
DNA 1: CCGTTTCTAGAAACCTCGCCACGTGGCCGACTAGAAAGGATCG
DNA 2: CGATCCTTTCTAGTCGGCCACGTGGCGAGGTTTCTAGAAACGG

Assays:
[1] = target: T1, TaBZR2; experiment: competition
[2] = target: T1, TaBZR2; experiment: competition; remark: listed apart in the source
[3] = target: T1, TaBZR2; experiment: EMSA

Row | Binder | binding result [3] | also measured
1 | B1 | – | binding result [1]: no binding
2 | B2 | – | binding result [2]: no binding
3 | B3 | binds | –
4 | B4 | binds | –
